Laboratory results reported in publication PMC7853477.

How the values were obtained:
[1] = molecular target: SARS-CoV-2 S protein receptor-binding domain RBDv2 (320–537) with C-terminal c-myc and 10xHis tags (SARS-CoV-2) (UniProt P0DTC2); experiment: non-reducing SDS-PAGE with gel densitometry
[2] = molecular target: SARS-CoV-2 S protein receptor-binding domain RBDv1 (319–541) with C-terminal c-myc and 6xHis tags (SARS-CoV-2) (UniProt P0DTC2); experiment: non-reducing SDS-PAGE with gel densitometry

Substance	percent covalent dimer [1] [%]	stoichiometry N [1]	stoichiometry N [2]
SARS-CoV-2 S protein receptor-binding domain RBDv2 (320–537) with C-terminal c-myc and 10xHis tags (from UniProt P0DTC2 320-537) (domain or fragment)	6	2	
SARS-CoV-2 S protein receptor-binding domain RBDv1 (319–541) with C-terminal c-myc and 6xHis tags (from UniProt P0DTC2 319-541) (domain or fragment)			2
